In publication doi:10.1101/2021.06.01.446590 (bioRxiv, 2021):

How the values were obtained:
[1] = biological target: human parkin, full-length (human, UniProt O60260 1-465); assay: ITC
His6-Smt3-Parkin = His6-Smt3-Parkin (human, UniProt O60260 1-465, RED-tris-NTA dye bound to the His6 tag); assay: MST
Chain of His6-Smt3-Parkin (O60260 whole entry): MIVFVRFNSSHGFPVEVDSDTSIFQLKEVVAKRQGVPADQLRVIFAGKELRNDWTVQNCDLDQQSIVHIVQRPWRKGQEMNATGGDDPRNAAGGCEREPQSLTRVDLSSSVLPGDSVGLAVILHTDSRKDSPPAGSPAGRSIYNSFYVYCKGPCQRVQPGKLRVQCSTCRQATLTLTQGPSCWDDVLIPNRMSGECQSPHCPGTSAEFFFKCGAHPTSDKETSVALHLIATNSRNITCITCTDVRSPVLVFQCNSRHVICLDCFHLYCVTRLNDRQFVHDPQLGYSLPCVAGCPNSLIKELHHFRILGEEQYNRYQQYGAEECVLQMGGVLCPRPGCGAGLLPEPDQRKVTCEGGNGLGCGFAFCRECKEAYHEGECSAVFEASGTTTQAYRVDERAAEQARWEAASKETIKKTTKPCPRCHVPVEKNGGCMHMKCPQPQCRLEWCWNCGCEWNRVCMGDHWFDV

Chain of human parkin, full-length (O60260 whole entry): as above

Kd [1]	Kd (His6-Smt3-Parkin)	Binder
> 100 µM	–	human CISD1 (residues 32-108) (domain or fragment, UniProt Q9NZ45 32-108, looked up) KRFYVKDHRNKAMINLHIQKDNPKIVHAFDMEDLGDKAVYCRCWRSKKFPFCDGAHTKHNEETGDNVGPLIIKKKET
–	> 100 µM	Miro1^181-579 (soluble construct of Miro1 containing the EF1-EF2-G2 domains) (domain or fragment, human, UniProt Q8IXI2 181-579, looked up) MKPACIKALTRIFKISDQDNDGTLNDAELNFFQRICFNTPLAPQALEDVKNVVRKHISDGVADSGLTLKGFLFLHTLFIQRGRHETTWTVLRRFGYDDDLDLTPEYLFPLLKIPPDCTTELNHHAYLFLQSTFDKHDLDRDCALSPDELKDLFKVFPYIPWGPDVNNTVCTNERGWITYQGFLSQWTLTTYLDVQRCLEYLGYLGYSILTEQESQASAVTVTRDKKIDLQKKQTQRNVFRCNVIGVKNCGKSGVLQALLGRNLMRQKKIREDHKSYYAINTVYVYGQEKYLLLHDISESEFLTEAEIICDVVCLVYDVSNPKSFEYCARIFKQHFMDSRIPCLIVAAKSDLHEVKQEYSISPTDFCRKHKMPPPQAFTCNTADAPSKDIFVKLTTMAMY
